These are literature values, as cited in paper PMC6359293.

As a reminder, the Kd is the equilibrium constant for the complex coming apart.

Data set [1] deals with Phosphoprotein XD XD (Measles morbillivirus) (UniProt P03422).
Data set [2] concerns the target hsp70 (Homo sapiens) (UniProt P0DMV8).
Chain of UniProt P0DMV8 (P0DMV8 2-641): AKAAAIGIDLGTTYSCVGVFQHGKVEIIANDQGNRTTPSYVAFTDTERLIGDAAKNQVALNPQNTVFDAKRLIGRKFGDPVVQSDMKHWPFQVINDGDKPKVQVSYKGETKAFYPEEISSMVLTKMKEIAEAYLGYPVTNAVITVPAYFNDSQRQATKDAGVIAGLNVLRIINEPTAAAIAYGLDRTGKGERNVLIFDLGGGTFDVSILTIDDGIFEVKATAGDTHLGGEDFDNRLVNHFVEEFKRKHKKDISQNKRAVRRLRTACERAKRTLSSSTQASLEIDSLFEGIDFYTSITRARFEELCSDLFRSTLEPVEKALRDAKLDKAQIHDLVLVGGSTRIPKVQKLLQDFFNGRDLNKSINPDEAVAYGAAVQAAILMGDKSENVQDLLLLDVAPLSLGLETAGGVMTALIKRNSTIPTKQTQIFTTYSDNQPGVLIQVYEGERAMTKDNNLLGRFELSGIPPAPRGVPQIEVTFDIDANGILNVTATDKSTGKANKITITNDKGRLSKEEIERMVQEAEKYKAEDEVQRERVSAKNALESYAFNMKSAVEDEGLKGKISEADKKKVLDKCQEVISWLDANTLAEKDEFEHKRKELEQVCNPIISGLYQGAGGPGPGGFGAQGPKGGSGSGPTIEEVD

Chain of UniProt P03422 (P03422 457-507): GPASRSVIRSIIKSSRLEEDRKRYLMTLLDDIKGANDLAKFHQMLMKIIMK

For the substance “Measles virus nucleoprotein NTAIL NTAIL (from UniProt P04851)”, the Kd in data set [1] is 3000 nM; in data set [2], 70 µM.
